Results taken from IntAct's records for PubMed 31515488.

B1: Elongin-A2 (Homo sapiens), Q8IYF1 (parent)
chain: MAAGSTTLHAVEKLQVRLATKTEPKKLEKYLQKLSALPMTADILAETGIRKTVKRLRKHQHVGDFARDLAARWKKLVLVDRNTRPGPQDPEESASRQRFGEALQDQEKAWGFPENATAPRSPSHSPEHRRTARRTPPGQQRPHPRSHSREPRAERKCPRIAPADSGRYRASPTRTAPLRMPEGPEPAAPGKQPGRGHTHAAQGGPLLCPGCQGQPQGKAVVSHSKGHKSSRQEKRPLCAQGDWHSPTLIREKSCGACLREETPRMPSWASARDRQPSDFKTDKEGGQAGSGQRVPALEEAPDSHQKRPQHSHSNKKRPSLDGRDPGNGTHGLSPEEKEQLSNDRETQEGKPPTAHLDRTSVSSLSEVEEVDMAEEFEQPTLSCEKYLTYDQLRKQKKKTGKSATTALGDKQRKANESKGTRESWDSAKKLPPVQESQSERLQAAGADSAGPKTVPSHVFSELWDLSEAWMQANYDPLSDSDSMTSQAKPEALSSPKFREEAAFPGRRVNAKMPVYSGSRPACQLQVPTLRQQCAQVLRNNPDALSDVGEVPYWVLEPVLEGWRPDQLYRRKKDNHALVRETDELRRNHCFQDFKEEKPQENKTWREQYLRLPDAPEQRLRVMTTNIRSARGNNPNGREAKMICFKSVAKTPYDTSRRQEKSAGDADPENGEIKPASKPAGSSHTPSSQSSSGGGRDSSSSILRWLPEKRANPCLSSSNEHAAPAAKTRKQAAKKVAPLMAKAIRDYKRRFSRR
partner: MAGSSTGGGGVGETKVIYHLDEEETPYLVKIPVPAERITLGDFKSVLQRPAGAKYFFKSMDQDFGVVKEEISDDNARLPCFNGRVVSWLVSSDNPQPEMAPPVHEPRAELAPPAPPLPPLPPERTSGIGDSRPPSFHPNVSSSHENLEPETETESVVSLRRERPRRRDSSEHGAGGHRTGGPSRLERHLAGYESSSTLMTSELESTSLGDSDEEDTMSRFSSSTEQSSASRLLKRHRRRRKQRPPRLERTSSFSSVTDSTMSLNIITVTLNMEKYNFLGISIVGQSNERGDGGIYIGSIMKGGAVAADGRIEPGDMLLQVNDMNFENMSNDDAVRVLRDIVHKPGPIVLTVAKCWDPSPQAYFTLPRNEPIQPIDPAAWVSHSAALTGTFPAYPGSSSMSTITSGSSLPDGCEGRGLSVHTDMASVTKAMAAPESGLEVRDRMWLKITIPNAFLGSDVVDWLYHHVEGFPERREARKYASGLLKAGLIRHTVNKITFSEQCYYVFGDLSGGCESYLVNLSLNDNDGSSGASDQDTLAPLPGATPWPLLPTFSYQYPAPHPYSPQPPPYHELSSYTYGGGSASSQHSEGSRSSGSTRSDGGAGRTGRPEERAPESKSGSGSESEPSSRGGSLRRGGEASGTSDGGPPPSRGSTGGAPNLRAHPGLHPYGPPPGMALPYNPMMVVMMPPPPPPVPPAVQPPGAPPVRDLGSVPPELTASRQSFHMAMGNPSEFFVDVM
B2: Four and a half LIM domains protein 5 (Homo sapiens), Q5TD97 (parent)
chain: MTTAHFYCQYCTASLLGKKYVLKDDSPYCVTCYDRVFSNYCEECKKPIESDSKDLCYKDRHWHEGCFKCTKCNHSLVEKPFAAKDERLLCTECYSNECSSKCFHCKRTIMPGSRKMEFKGNYWHETCFVCENCRQPIGTKPLISKESGNYCVPCFEKEFAHYCNFCKKVITSGGITFCDQLWHKECFLCSGCRKDLCEEQFMSRDDYPFCVDCYNHLYANKCVACSKPISGLTGAKFICFQDSQWHSECFNCGKCSVSLVGKGFLTQNKEIFCQKCGSGMDTDI
partner: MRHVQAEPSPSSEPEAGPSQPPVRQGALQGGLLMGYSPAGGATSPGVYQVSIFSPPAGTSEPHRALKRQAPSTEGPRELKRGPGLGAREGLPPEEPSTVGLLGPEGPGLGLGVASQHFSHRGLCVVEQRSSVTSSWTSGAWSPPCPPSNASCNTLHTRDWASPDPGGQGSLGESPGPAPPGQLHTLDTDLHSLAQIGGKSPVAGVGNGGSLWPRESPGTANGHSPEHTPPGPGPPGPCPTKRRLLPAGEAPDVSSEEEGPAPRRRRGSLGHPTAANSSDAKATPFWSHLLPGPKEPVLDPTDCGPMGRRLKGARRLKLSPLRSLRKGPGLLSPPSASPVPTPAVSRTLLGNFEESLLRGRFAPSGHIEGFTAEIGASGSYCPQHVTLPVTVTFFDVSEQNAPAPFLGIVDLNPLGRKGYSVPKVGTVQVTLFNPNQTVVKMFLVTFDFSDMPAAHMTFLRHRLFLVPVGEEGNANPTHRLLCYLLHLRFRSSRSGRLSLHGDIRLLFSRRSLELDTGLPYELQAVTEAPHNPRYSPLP
B3: AN1-type zinc finger protein 2B (Homo sapiens), Q8WV99 (parent)
chain: MEFPDLGAHCSEPSCQRLDFLPLKCDACSGIFCADHVAYAQHHCGSAYQKDIQVPVCPLCNVPVPVARGEPPDRAVGEHIDRDCRSDPAQQKRKIFTNKCERAGCRQREMMKLTCERCSRNFCIKHRHPLDHDCSGEGHPTSRAGLAAISRAQAVASTSTVPSPSQTMPSCTSPSRATTRSPSWTAPPVIALQNGLSEDEALQRALEMSLAETKPQVPSCQEEEDLALAQALSASEAEYQRQQAQSRSSKPSNCSLC
partner: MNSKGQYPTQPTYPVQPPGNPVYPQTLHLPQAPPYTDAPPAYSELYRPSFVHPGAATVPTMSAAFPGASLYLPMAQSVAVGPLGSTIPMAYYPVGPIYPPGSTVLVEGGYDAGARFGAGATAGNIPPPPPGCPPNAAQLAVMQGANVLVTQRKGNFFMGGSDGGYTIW
B4: SH2 domain-containing protein 4A (Homo sapiens), Q9H788 (parent)
chain: MLKQILSEMYIDPDLLAELSEEQKQILFFKMREEQIRRWKEREAAMERKESLPVKPRPKKENGKSVHWKLGADKEVWVWVMGEHHLDKPYDVLCNEIIAERARLKAEQEAEEPRKTHSEEFTNSLKTKSQYHDLQAPDNQQTKDIWKKVAEKEELEQGSRPAPTLEEEKIRSLSSSSRNIQQMLADSINRMKAYAFHQKKESMKKKQDEEINQIEEERTKQICKSWKEDSEWQASLRKSKAADEKRRSLAKQAREDYKRLSLGAQKGRGGERLQSPLRVPQKPERPPLPPKPQFLNSGAYPQKPLRNQGVVRTLSSSAQEDIIRWFKEEQLPLRAGYQKTSDTIAPWFHGILTLKKANELLLSTGMPGSFLIRVSERIKGYALSYLSEDGCKHFLIDASADAYSFLGVDQLQHATLADLVEYHKEEPITSLGKELLLYPCGQQDQLPDYLELFE
partner: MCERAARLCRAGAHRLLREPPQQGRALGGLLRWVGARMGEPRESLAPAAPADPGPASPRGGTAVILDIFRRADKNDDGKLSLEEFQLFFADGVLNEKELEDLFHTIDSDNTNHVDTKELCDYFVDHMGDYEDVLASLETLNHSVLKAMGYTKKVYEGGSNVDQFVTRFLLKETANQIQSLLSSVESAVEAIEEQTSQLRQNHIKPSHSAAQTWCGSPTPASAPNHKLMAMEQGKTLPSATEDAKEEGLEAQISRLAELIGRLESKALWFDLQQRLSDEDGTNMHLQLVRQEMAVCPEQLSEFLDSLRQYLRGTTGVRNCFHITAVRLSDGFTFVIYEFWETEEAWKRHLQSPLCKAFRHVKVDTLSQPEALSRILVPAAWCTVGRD

Variants of: B1
Conditions: with dvl2_human DVL2, O14641

| Variant | effect of a mutation on the interaction |
| --- | --- |
| A403S | with no effect |
| T6S | with no effect |
| G505R | with no effect |

Variants of: B2
Conditions: with atosb_human ATOSB

| Variant | effect of a mutation on the interaction |
| --- | --- |
| D24Y | with no effect |
| M202L | with no effect |
| R204G | with no effect |
| R60W | with no effect |

Variants of: B3
Conditions: with dazp2_human DAZAP2, Q15038

| Variant | effect of a mutation on the interaction |
| --- | --- |
| P71H | with no effect |

Variants of: B4
Conditions: with neca2_human NECAB2, Q7Z6G3

| Variant | effect of a mutation on the interaction |
| --- | --- |
| G263A | with no effect |
| K303R | with no effect |
| E216G | with no effect |
